Consider 7 variants from FireProtDB (doi:10.1093/protein/15.10.817).

B1: High mobility group protein B1, P63159 (parent)
chain: MGKGDPKKPRGKMSSYAFFVQTCREEHKKKHPDASVNFSEFSKKCSERWKTMSAKEKGKFEDMAKADKARYEREMKTYIPPKGETKKKFKDPNAPKRPPSAFFLFCSEYRPKIKGEHPGLSIGDVAKKLGEMWNNTAADDKQPYEKKAAKLKEKYEKDIAAYRAKGKPDAAKKGVVKAEKSKKKKEEEDDEEDEEDEEEEEEEEDEDEEEDDDDE

Where “and” joins values, the source holds several entries; their conditions need not be identical. Equal values may be shown once.

The data set covers variants of B1. The conditions noted are these: Rattus norvegicus, pH 7, Thermal, CD, HEPES 10 mM, structure 1HME, whole UniProt chain shown; for unfolding free energy / ddG of mutation (higher = less stable): 20 °C.

A word on the Tm: it is the temperature at the midpoint of the melting transition. Consider MGKGDPKKPRGKMSSYAFFVQTCREEHKKKHPDASVNFSEFSKKCSERWKTMSAKEKGKFEDMAKADKARYEREMKTYIPPKGETKKKFKDPNAPKRPPSAFFLFCSEYRPKIKGEHPGLSIGDVAKKLGEMWNHTAAHDKQPYEKKAAKLKEKYEKDIAAYRAKGKPDAAKKGVVKAEKSKKKKEEEDDEEDEEDEEEEEEEEDEDEEEDDDDE [N135H D139H], for which the unfolding free energy was 1.69 kcal/mol and 2.42 kcal/mol and 1.67 kcal/mol; the Tm was 39 °C and 36.3 °C; the “unfolding enthalpy (van 't Hoff)” value is 35.8 kcal/mol and 32.3 kcal/mol. Moreover, the unfolding free energy (NiSO4 1 mM) was 1.74 kcal/mol and 4.04 kcal/mol and 4.32 kcal/mol.
Consider MGKGDPKKPRGKMSSYAFFVQTCREEHKKKHPDASVNFSEFSKKCSERWKTMSAKEKGKFEDMAKADKARYEREMKTYIPPKGETKKKFKDPNAPKRPPSAFFLFCSEYRPKIKGEHPGLHIGDVAKKLGEMWNNTAADDKQPYEKKAAKLKEKYEKDIAAYRAKGKPDAAKKGVVKAEKSKKKKEEEDDEEDEEDEEEEEEEEDEDEEEDDDDE [S121H], for which the “ddG of mutation (higher = less stable)” value is 1.85 kcal/mol; the unfolding free energy was determined as 0.85 kcal/mol; the Tm was 30.4 °C; the “change of melting temperature, mutant - wild type (higher = more stable)” value (shortened to “change of melting temperature, mutant”) was -10.2 °C. Moreover, the “unfolding enthalpy (van 't Hoff)” value was found to be 28.2 kcal/mol. Further, where the note is “NiSO4 1 mM”, the “ddG of mutation (higher = less stable)” value came to 1.5 kcal/mol; the unfolding free energy came to 1.2 kcal/mol; the Tm is 34.4 °C; the “change of melting temperature, mutant” value is -6.2 °C. Besides, for the setting “NiSO4 1 mM”, the “unfolding enthalpy (van 't Hoff)” value turned out to be 31.4 kcal/mol.
Consider MGKGDPKKPRGKMSSYAFFVQTCREEHKKKHPDASVNFSEFSKKCSERWKTMSAKEKGKFEDMAKADKARYEREMKTYIPPKGETKKKFKDPNAPKRPPSAFFLFCSEYRPKIKGEHPGLSIHDVAKKLGEMWNNTAADDKQPYEKKAAKLKEKYEKDIAAYRAKGKPDAAKKGVVKAEKSKKKKEEEDDEEDEEDEEEEEEEEDEDEEEDDDDE [G123H], for which the “ddG of mutation (higher = less stable)” value came to 0.34 kcal/mol and the unfolding free energy came to 2.36 kcal/mol. For the setting “NiSO4 1 mM”, the “ddG of mutation (higher = less stable)” value was -0.47 kcal/mol; the unfolding free energy came to 3.17 kcal/mol; the Tm was determined as 44.9 °C; the “change of melting temperature, mutant” value is 4.3 °C. Also, the “unfolding enthalpy (van 't Hoff)” value (NiSO4 1 mM) stood at 36.8 kcal/mol.
On to MGKGDPKKPRGKMSSYAFFVQTCREEHKKKHPDASVNFSEFSKKCSERWKTMSAKEKGKFEDMAKADKARYEREMKTYIPPKGETKKKFKDPNAPKRPPSAFFLFCSEYRPKIKGEHPGLSIGDVAKKLGEMWNNTAADHKQPYEKKAAKLKEKYEKDIAAYRAKGKPDAAKKGVVKAEKSKKKKEEEDDEEDEEDEEEEEEEEDEDEEEDDDDE [D140H], for which the Tm amounted to 38.2 °C; the “change of melting temperature, mutant” value was -2.4 °C; the “unfolding enthalpy (van 't Hoff)” value amounted to 33 kcal/mol. For the same variant, for the setting “NiSO4 1 mM”, the “ddG of mutation (higher = less stable)” value was -0.95 kcal/mol; the unfolding free energy came to 3.65 kcal/mol; the Tm came to 46.8 °C; the “change of melting temperature, mutant” value came to 6.2 °C. The “unfolding enthalpy (van 't Hoff)” value (NiSO4 1 mM) worked out at 36.8 kcal/mol.
As to MGKGDPKKPRGKMSSYAFFVQTCREEHKKKHPDASVNFSEFSKKCSERWKTMSAKEKGKFEDMAKADKARYEREMKTYIPPKGETKKKFKDPNAPKRPPSAFFLFCSEYRPKIKGEHPGLSIGDVAKKLGEMWNNTAAHDKQPYEKKAAKLKEKYEKDIAAYRAKGKPDAAKKGVVKAEKSKKKKEEEDDEEDEEDEEEEEEEEDEDEEEDDDDE [D139H], the “ddG of mutation (higher = less stable)” value is -0.27 kcal/mol; the unfolding free energy is 2.97 kcal/mol; the Tm stood at 41.1 °C; the “change of melting temperature, mutant” value was determined as 0.5 °C. Moreover, the “unfolding enthalpy (van 't Hoff)” value amounted to 38.3 kcal/mol. Also, under “NiSO4 1 mM”, the “ddG of mutation (higher = less stable)” value was -0.97 kcal/mol; the unfolding free energy is 3.67 kcal/mol; the Tm came to 46.8 °C; the “change of melting temperature, mutant” value was 6.2 °C. In addition, for the setting “NiSO4 1 mM”, the “unfolding enthalpy (van 't Hoff)” value was 41 kcal/mol.
For MGKGDPKKPRGKMSSYAFFVQTCREEHKKKHPDASVNFSEFSKKCSERWKTMSAKEKGKFEDMAKADKARYEREMKTYIPPKGETKKKFKDPNAPKRPPSAFFLFCSEYRPKIKGEHPGLSIGDVAKKLGEMWNHTAADHKQPYEKKAAKLKEKYEKDIAAYRAKGKPDAAKKGVVKAEKSKKKKEEEDDEEDEEDEEEEEEEEDEDEEEDDDDE [N135H D140H], the “ddG of mutation (higher = less stable)” value was 1.3 kcal/mol and 1.2 kcal/mol; the unfolding free energy was 1.4 kcal/mol and 1.5 kcal/mol; the Tm is 34.3 °C and 35.3 °C; the “change of melting temperature, mutant” value is -6.3 °C and -5.3 °C. Besides, the “unfolding enthalpy (van 't Hoff)” value was 33.1 kcal/mol and 31.5 kcal/mol. Besides, the unfolding free energy (NiSO4 1 mM) was 1.8 kcal/mol and 2.46 kcal/mol.
With MGKGDPKKPRGKMSSYAFFVQTCREEHKKKHPDASVNFSEFSKKCSERWKTMSAKEKGKFEDMAKADKARYEREMKTYIPPKGETKKKFKDPNAPKRPPSAFFLFCSEYRPKIKGEHPGLSHGDVAKKLGEMWNNTAADDKQPYEKKAAKLKEKYEKDIAAYRAKGKPDAAKKGVVKAEKSKKKKEEEDDEEDEEDEEEEEEEEDEDEEEDDDDE [I122H], the “ddG of mutation (higher = less stable)” value worked out at 1.23 kcal/mol; the unfolding free energy amounted to 1.74 kcal/mol; the Tm stood at 36.2 °C; the “change of melting temperature, mutant” value is -4.4 °C. Further, the “unfolding enthalpy (van 't Hoff)” value came out at 33.6 kcal/mol. For the same variant, for the setting “NiSO4 1 mM”, the “ddG of mutation (higher = less stable)” value stood at 0 kcal/mol; the unfolding free energy was 2.7 kcal/mol; the Tm amounted to 41.9 °C; the “change of melting temperature, mutant” value is 1.3 °C. Also, the “unfolding enthalpy (van 't Hoff)” value (NiSO4 1 mM) is 34.2 kcal/mol.
